Measurements taken from article doi:10.1101/447979.

Biological target: FLAG-tagged human importin-α7 (human) (UniProt O60684)
Assay: co-IP

**Q.** “nucleoprotein (NP) of 2009 pandemic H1N1 influenza A virus A/Hamburg/NY1580/09, parental (natural protein)” was tested. Which fold binding against importin-α1 did it give?
**A.** 10 fold
